Laboratory results taken from paper PMC2933578, “Mutational analysis of an archaeal minichromosome maintenance protein exterior hairpin reveals critical residues for helicase activity and DNA binding” (BMC Molecular Biology, 2010).

How the values were obtained:
[1] = substrate: Nc1ncnc2c1ncn2[C@@H]1O[C@H](COP(=O)(O)OP(=O)(O)OP(=O)(O)O)[C@@H](O)[C@H]1O; assay: EnzChek phosphate release ATPase assay; format: biochemical, Saccharolobus solfataricus; conditions: no DNA, per monomeric MCM subunit, unit nM
Excerpt: EnzChek phosphate release ATPase assay on ssoMCM

[2] = biological target: the molecule itself; assay: SEC; Superose 6 size exclusion column, 250 mM NaCl; ~0.5 mg of protein; markers ferritin (440 kD) and aldolase (158 kD); self-association to the hexamer
[3] = mutant M1: text gives lysine K323, Table 2 prints R323A

B1: ssoMCM mutant M6 (D327A) (enzyme, Sulfolobus solfataricus, UniProt Q9UXG1 1-686, looked up)
chain: MEIPSKQIDYRDVFIEFLTTFKGNNNQNKYIERINELVAYRKKSLIIEFSDVLSFNENLAYEIINNTKIILPILEGALYDHILQLDPTYQRDIEKVHVRIVGIPRVIELRKIRSTDIGKLITIDGILVKVTPVKERIYKATYKHIHPDCMQEFEWPEDEEMPEVLEMPTICPKCGKPGQFRLIPEKTKLIDWQKAVIQERPEEVPSGQLPRQLEIILEDDLVDSARPGDRVKVTGILDIKQDSPVKRGSRAVFDIYMKVSSIEVSQKVLDEVIISEEDEKKIKDLAKDPWIRDRIISSIAPSIYGHWELKEALALALFGGVPKVLEATRIRGDIHILIIGDPGTAKSQMLQFISRVAPRAVYTTGKGSTAAGLTAAVVREKGTGEYYLEAGALVLADGGIAVIDEIDKMRDEDRVAIHEAMEQQTVSIAKAGIVAKLNARAAVIAAGNPKFGRYISERPVSDNINLPPTILSRFDLIFILKDQPGEQDRELANYILDVHSGKSTKNIIDIDTLRKYIAYARKYVTPKITSEAKNLITDFFVEMRKKSSETPDSPILITPRQLEALIRISEAYAKMALKAEVTREDAERAINIMRLFLESVGVDMESGKIDIDTIMTGKPKSAREKMMKIIEIIDSLAVSSECAKVKDILKEAQQVGIEKSNIEKLLTDMRKSGIIYEAKPECYKKV
notes: MCM of Sulfolobus solfataricus with D327A; source: cloned and purified (Resource Q anion exchange, size-exclusion chromatography) as described previously [15]
Km ([1]; mutant M6): 100 ± 20 nM | kcat ([1]; mutant M6): 0.0383 ± 0.00167 s⁻¹ | stoichiometry N [2]: 6

B2: ssoMCM mutant M8 (R329A) (enzyme, Sulfolobus solfataricus, UniProt Q9UXG1 1-686, looked up)
chain: MEIPSKQIDYRDVFIEFLTTFKGNNNQNKYIERINELVAYRKKSLIIEFSDVLSFNENLAYEIINNTKIILPILEGALYDHILQLDPTYQRDIEKVHVRIVGIPRVIELRKIRSTDIGKLITIDGILVKVTPVKERIYKATYKHIHPDCMQEFEWPEDEEMPEVLEMPTICPKCGKPGQFRLIPEKTKLIDWQKAVIQERPEEVPSGQLPRQLEIILEDDLVDSARPGDRVKVTGILDIKQDSPVKRGSRAVFDIYMKVSSIEVSQKVLDEVIISEEDEKKIKDLAKDPWIRDRIISSIAPSIYGHWELKEALALALFGGVPKVLEDTAIRGDIHILIIGDPGTAKSQMLQFISRVAPRAVYTTGKGSTAAGLTAAVVREKGTGEYYLEAGALVLADGGIAVIDEIDKMRDEDRVAIHEAMEQQTVSIAKAGIVAKLNARAAVIAAGNPKFGRYISERPVSDNINLPPTILSRFDLIFILKDQPGEQDRELANYILDVHSGKSTKNIIDIDTLRKYIAYARKYVTPKITSEAKNLITDFFVEMRKKSSETPDSPILITPRQLEALIRISEAYAKMALKAEVTREDAERAINIMRLFLESVGVDMESGKIDIDTIMTGKPKSAREKMMKIIEIIDSLAVSSECAKVKDILKEAQQVGIEKSNIEKLLTDMRKSGIIYEAKPECYKKV
notes: MCM of Sulfolobus solfataricus with R329A; source: cloned and purified (Resource Q anion exchange, size-exclusion chromatography) as described previously [15]
Km ([1]; mutant M8): 170 ± 40 nM | kcat ([1]; mutant M8): 0.03 ± 0.00167 s⁻¹ | stoichiometry N [2]: 6

B3: ssoMCM mutant M5 (E326A) (enzyme, Sulfolobus solfataricus, UniProt Q9UXG1 1-686, looked up)
chain: MEIPSKQIDYRDVFIEFLTTFKGNNNQNKYIERINELVAYRKKSLIIEFSDVLSFNENLAYEIINNTKIILPILEGALYDHILQLDPTYQRDIEKVHVRIVGIPRVIELRKIRSTDIGKLITIDGILVKVTPVKERIYKATYKHIHPDCMQEFEWPEDEEMPEVLEMPTICPKCGKPGQFRLIPEKTKLIDWQKAVIQERPEEVPSGQLPRQLEIILEDDLVDSARPGDRVKVTGILDIKQDSPVKRGSRAVFDIYMKVSSIEVSQKVLDEVIISEEDEKKIKDLAKDPWIRDRIISSIAPSIYGHWELKEALALALFGGVPKVLADTRIRGDIHILIIGDPGTAKSQMLQFISRVAPRAVYTTGKGSTAAGLTAAVVREKGTGEYYLEAGALVLADGGIAVIDEIDKMRDEDRVAIHEAMEQQTVSIAKAGIVAKLNARAAVIAAGNPKFGRYISERPVSDNINLPPTILSRFDLIFILKDQPGEQDRELANYILDVHSGKSTKNIIDIDTLRKYIAYARKYVTPKITSEAKNLITDFFVEMRKKSSETPDSPILITPRQLEALIRISEAYAKMALKAEVTREDAERAINIMRLFLESVGVDMESGKIDIDTIMTGKPKSAREKMMKIIEIIDSLAVSSECAKVKDILKEAQQVGIEKSNIEKLLTDMRKSGIIYEAKPECYKKV
notes: MCM of Sulfolobus solfataricus with E326A; source: cloned and purified (Resource Q anion exchange, size-exclusion chromatography) as described previously [15]
stoichiometry N [2]: 6

B4: ssoMCM mutant M1 (K323A; printed R323A in Table 2) (enzyme, Sulfolobus solfataricus, UniProt Q9UXG1 1-686, looked up)
chain: MEIPSKQIDYRDVFIEFLTTFKGNNNQNKYIERINELVAYRKKSLIIEFSDVLSFNENLAYEIINNTKIILPILEGALYDHILQLDPTYQRDIEKVHVRIVGIPRVIELRKIRSTDIGKLITIDGILVKVTPVKERIYKATYKHIHPDCMQEFEWPEDEEMPEVLEMPTICPKCGKPGQFRLIPEKTKLIDWQKAVIQERPEEVPSGQLPRQLEIILEDDLVDSARPGDRVKVTGILDIKQDSPVKRGSRAVFDIYMKVSSIEVSQKVLDEVIISEEDEKKIKDLAKDPWIRDRIISSIAPSIYGHWELKEALALALFGGVPAVLEDTRIRGDIHILIIGDPGTAKSQMLQFISRVAPRAVYTTGKGSTAAGLTAAVVREKGTGEYYLEAGALVLADGGIAVIDEIDKMRDEDRVAIHEAMEQQTVSIAKAGIVAKLNARAAVIAAGNPKFGRYISERPVSDNINLPPTILSRFDLIFILKDQPGEQDRELANYILDVHSGKSTKNIIDIDTLRKYIAYARKYVTPKITSEAKNLITDFFVEMRKKSSETPDSPILITPRQLEALIRISEAYAKMALKAEVTREDAERAINIMRLFLESVGVDMESGKIDIDTIMTGKPKSAREKMMKIIEIIDSLAVSSECAKVKDILKEAQQVGIEKSNIEKLLTDMRKSGIIYEAKPECYKKV
notes: MCM of Sulfolobus solfataricus with the mutation of M1; also called K323 (M1); source: cloned and purified (Resource Q anion exchange, size-exclusion chromatography) as described previously [15]
Km [1, 3]: 140 ± 30 nM | kcat [1, 3]: 0.03 ± 0.00167 s⁻¹ | stoichiometry N [2]: 6

B5: Sulfolobus solfataricus MCM (minichromosome maintenance protein), wild type (enzyme, UniProt Q9UXG1 1-686, looked up)
chain: MEIPSKQIDYRDVFIEFLTTFKGNNNQNKYIERINELVAYRKKSLIIEFSDVLSFNENLAYEIINNTKIILPILEGALYDHILQLDPTYQRDIEKVHVRIVGIPRVIELRKIRSTDIGKLITIDGILVKVTPVKERIYKATYKHIHPDCMQEFEWPEDEEMPEVLEMPTICPKCGKPGQFRLIPEKTKLIDWQKAVIQERPEEVPSGQLPRQLEIILEDDLVDSARPGDRVKVTGILDIKQDSPVKRGSRAVFDIYMKVSSIEVSQKVLDEVIISEEDEKKIKDLAKDPWIRDRIISSIAPSIYGHWELKEALALALFGGVPKVLEDTRIRGDIHILIIGDPGTAKSQMLQFISRVAPRAVYTTGKGSTAAGLTAAVVREKGTGEYYLEAGALVLADGGIAVIDEIDKMRDEDRVAIHEAMEQQTVSIAKAGIVAKLNARAAVIAAGNPKFGRYISERPVSDNINLPPTILSRFDLIFILKDQPGEQDRELANYILDVHSGKSTKNIIDIDTLRKYIAYARKYVTPKITSEAKNLITDFFVEMRKKSSETPDSPILITPRQLEALIRISEAYAKMALKAEVTREDAERAINIMRLFLESVGVDMESGKIDIDTIMTGKPKSAREKMMKIIEIIDSLAVSSECAKVKDILKEAQQVGIEKSNIEKLLTDMRKSGIIYEAKPECYKKV
notes: MCM of Sulfolobus solfataricus, wild type; also called ssoMCM; WT; source: cloned and purified (Resource Q anion exchange, size-exclusion chromatography) as described previously [15]
Km [1]: 170 ± 20 nM | kcat [1]: 0.0517 ± 0.00167 s⁻¹ | stoichiometry N [2]: 6

B6: ssoMCM mutant M9 (R331A) (enzyme, Sulfolobus solfataricus, UniProt Q9UXG1 1-686, looked up)
chain: MEIPSKQIDYRDVFIEFLTTFKGNNNQNKYIERINELVAYRKKSLIIEFSDVLSFNENLAYEIINNTKIILPILEGALYDHILQLDPTYQRDIEKVHVRIVGIPRVIELRKIRSTDIGKLITIDGILVKVTPVKERIYKATYKHIHPDCMQEFEWPEDEEMPEVLEMPTICPKCGKPGQFRLIPEKTKLIDWQKAVIQERPEEVPSGQLPRQLEIILEDDLVDSARPGDRVKVTGILDIKQDSPVKRGSRAVFDIYMKVSSIEVSQKVLDEVIISEEDEKKIKDLAKDPWIRDRIISSIAPSIYGHWELKEALALALFGGVPKVLEDTRIAGDIHILIIGDPGTAKSQMLQFISRVAPRAVYTTGKGSTAAGLTAAVVREKGTGEYYLEAGALVLADGGIAVIDEIDKMRDEDRVAIHEAMEQQTVSIAKAGIVAKLNARAAVIAAGNPKFGRYISERPVSDNINLPPTILSRFDLIFILKDQPGEQDRELANYILDVHSGKSTKNIIDIDTLRKYIAYARKYVTPKITSEAKNLITDFFVEMRKKSSETPDSPILITPRQLEALIRISEAYAKMALKAEVTREDAERAINIMRLFLESVGVDMESGKIDIDTIMTGKPKSAREKMMKIIEIIDSLAVSSECAKVKDILKEAQQVGIEKSNIEKLLTDMRKSGIIYEAKPECYKKV
notes: MCM of Sulfolobus solfataricus with R331A; source: cloned and purified (Resource Q anion exchange, size-exclusion chromatography) as described previously [15]
stoichiometry N [2]: 6

B7: ssoMCM mutant M2 (V324A) (enzyme, Sulfolobus solfataricus, UniProt Q9UXG1 1-686, looked up)
chain: MEIPSKQIDYRDVFIEFLTTFKGNNNQNKYIERINELVAYRKKSLIIEFSDVLSFNENLAYEIINNTKIILPILEGALYDHILQLDPTYQRDIEKVHVRIVGIPRVIELRKIRSTDIGKLITIDGILVKVTPVKERIYKATYKHIHPDCMQEFEWPEDEEMPEVLEMPTICPKCGKPGQFRLIPEKTKLIDWQKAVIQERPEEVPSGQLPRQLEIILEDDLVDSARPGDRVKVTGILDIKQDSPVKRGSRAVFDIYMKVSSIEVSQKVLDEVIISEEDEKKIKDLAKDPWIRDRIISSIAPSIYGHWELKEALALALFGGVPKALEDTRIRGDIHILIIGDPGTAKSQMLQFISRVAPRAVYTTGKGSTAAGLTAAVVREKGTGEYYLEAGALVLADGGIAVIDEIDKMRDEDRVAIHEAMEQQTVSIAKAGIVAKLNARAAVIAAGNPKFGRYISERPVSDNINLPPTILSRFDLIFILKDQPGEQDRELANYILDVHSGKSTKNIIDIDTLRKYIAYARKYVTPKITSEAKNLITDFFVEMRKKSSETPDSPILITPRQLEALIRISEAYAKMALKAEVTREDAERAINIMRLFLESVGVDMESGKIDIDTIMTGKPKSAREKMMKIIEIIDSLAVSSECAKVKDILKEAQQVGIEKSNIEKLLTDMRKSGIIYEAKPECYKKV
notes: MCM of Sulfolobus solfataricus with V324A; source: cloned and purified (Resource Q anion exchange, size-exclusion chromatography) as described previously [15]
Km ([1]; mutant M2): 120 ± 20 nM | kcat ([1]; mutant M2): 0.04 ± 0.00167 s⁻¹ | stoichiometry N [2]: 6

B8: ssoMCM mutant M10 (K346A, Walker A mutant) (enzyme, Sulfolobus solfataricus, UniProt Q9UXG1 1-686, looked up)
chain: MEIPSKQIDYRDVFIEFLTTFKGNNNQNKYIERINELVAYRKKSLIIEFSDVLSFNENLAYEIINNTKIILPILEGALYDHILQLDPTYQRDIEKVHVRIVGIPRVIELRKIRSTDIGKLITIDGILVKVTPVKERIYKATYKHIHPDCMQEFEWPEDEEMPEVLEMPTICPKCGKPGQFRLIPEKTKLIDWQKAVIQERPEEVPSGQLPRQLEIILEDDLVDSARPGDRVKVTGILDIKQDSPVKRGSRAVFDIYMKVSSIEVSQKVLDEVIISEEDEKKIKDLAKDPWIRDRIISSIAPSIYGHWELKEALALALFGGVPKVLEDTRIRGDIHILIIGDPGTAASQMLQFISRVAPRAVYTTGKGSTAAGLTAAVVREKGTGEYYLEAGALVLADGGIAVIDEIDKMRDEDRVAIHEAMEQQTVSIAKAGIVAKLNARAAVIAAGNPKFGRYISERPVSDNINLPPTILSRFDLIFILKDQPGEQDRELANYILDVHSGKSTKNIIDIDTLRKYIAYARKYVTPKITSEAKNLITDFFVEMRKKSSETPDSPILITPRQLEALIRISEAYAKMALKAEVTREDAERAINIMRLFLESVGVDMESGKIDIDTIMTGKPKSAREKMMKIIEIIDSLAVSSECAKVKDILKEAQQVGIEKSNIEKLLTDMRKSGIIYEAKPECYKKV
notes: MCM of Sulfolobus solfataricus with K346A (Walker A lysine); source: cloned and purified (Resource Q anion exchange, size-exclusion chromatography) as described previously [15]
stoichiometry N [2]: 6
